Several values for one entry are separate records, joined by “and”; a condition that tells them apart may be missing. Equal entries are not always repeated. Each block holds one molecule with its values, some of them ahead of it.
How the values were obtained:
T. maritima encapsulin [1] = molecular target: T1, T. maritima encapsulin (Thermotoga maritima, UniProt Q9WZP2); assay: LC-MS of flavin released from purified encapsulin; assay type: binding; conditions: co-purified minor species; exact flavin composition not determined
T1 construct: gene enc; encapsulin shell, codon-optimised gene in pET14, E. coli BL21(DE3), co-expressed with His6-tagged FLP cargo (sub-stoichiometric loading); T = 1 icosahedral shell of 12 pentamers; flavin site between two shell subunits; with Encapsulated ferritin-like protein (FLP cargo)

T. maritima encapsulin [2] = molecular target: T1, T. maritima encapsulin; assay: cryo-EM structure […] A; absorbance, LC-MS of released flavin; assay type: binding; conditions: co-purified flavin; pi-stacking with W90 between two shell subunits; fluorescence quenched until denatured
[3] = molecular target: the molecule itself; assay: cryo-EM structure; FLP-loaded encapsulin, co-expressed in E. coli and purified as a complex; 2 mg/mL, 0.05% NP-40; 2D classes, I1 reconstruction of the shell (3.3 Å), C1 reconstruction, symmetry expansion and focused classification of the FLP at a pentameric vertex (shell ~3.5 Å, FLP ~7 Å)
[4] = molecular target: Thermotoga maritima encapsulin shell protein (Thermotoga maritima) (UniProt Q9WZP2); assay: as above

T1 sequence (Q9WZP2 whole entry): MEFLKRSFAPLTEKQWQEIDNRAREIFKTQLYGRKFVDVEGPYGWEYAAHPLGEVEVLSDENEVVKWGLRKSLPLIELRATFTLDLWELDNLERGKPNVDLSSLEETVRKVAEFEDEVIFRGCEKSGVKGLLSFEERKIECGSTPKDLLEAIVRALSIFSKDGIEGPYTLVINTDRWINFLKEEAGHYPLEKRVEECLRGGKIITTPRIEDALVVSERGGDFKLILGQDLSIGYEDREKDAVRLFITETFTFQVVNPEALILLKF

Molecule: Cc1cc2nc3c(=O)[nH]c(=O)nc-3n(C[C@H](O)[C@H](O)[C@H](O)CO)c2cc1C [riboflavin]
LC-MS of flavin released from purified encapsulin (T. maritima encapsulin [1]): Both FMN and riboflavin were present as the major and minor peaks respectively

Molecule: Cc1cc2nc3c(=O)[nH]c(=O)nc-3n(C[C@H](O)[C@H](O)[C@H](O)COP(=O)(O)O)c2cc1C [FMN, flavin mononucleotide]
cryo-EM structure 3.3 A; absorbance, LC-MS of released flavin (T. maritima encapsulin [2]): additional density near W90 that corresponds to a flavin undergoing π–stacking with the tryptophan

stoichiometry N [4]: 3 FLPs/shell and 5 FLPs/shell and 4 FLPs/shell
stoichiometry N (FLPs per encapsulin) [4]: 2
B1: Thermotoga maritima ferritin-like protein (FLP) cargo (natural protein, UniProt Q9WZP3 1-114, looked up)
chain: MADQYHEPVSELTGKDRDFVRALNSLKEEIEAVAWYHQRVVTTKDETVRKILEHNRDEEMEHAAMLLEWLRRNMPGWDEALRTYLFTDKPITEIEEETSGGSENTGGDLGIRKL
notes: ferritin-like protein, native cargo of the Thermotoga maritima encapsulin; Decamer with fivefold symmetry; The map of the cargo (EMD-24002) has no atomic model of its own; a homologous FLP crystal structure (PDB 5DA5) was docked as a rigid body; also called cargo protein; ferritin-like cargo protein; copies: 10
stoichiometry N [3]: 10
